Experimental data as given in US20120087917A1.

Experiments:
[1] = target: LOXL2 (lysyl oxidase-like 2) (human) (UniProt Q9Y4K0); assay: SPR, Bio-Rad ProteOn, amine coupling, 25 C
[2] = target: LOXL2 (lysyl oxidase-like 2) (human) (UniProt Q9Y4K0); assay: cell-based or functional assay

Chain of LOXL2 (lysyl oxidase-like 2) (human) (Q9Y4K0 26-774 limits assumed): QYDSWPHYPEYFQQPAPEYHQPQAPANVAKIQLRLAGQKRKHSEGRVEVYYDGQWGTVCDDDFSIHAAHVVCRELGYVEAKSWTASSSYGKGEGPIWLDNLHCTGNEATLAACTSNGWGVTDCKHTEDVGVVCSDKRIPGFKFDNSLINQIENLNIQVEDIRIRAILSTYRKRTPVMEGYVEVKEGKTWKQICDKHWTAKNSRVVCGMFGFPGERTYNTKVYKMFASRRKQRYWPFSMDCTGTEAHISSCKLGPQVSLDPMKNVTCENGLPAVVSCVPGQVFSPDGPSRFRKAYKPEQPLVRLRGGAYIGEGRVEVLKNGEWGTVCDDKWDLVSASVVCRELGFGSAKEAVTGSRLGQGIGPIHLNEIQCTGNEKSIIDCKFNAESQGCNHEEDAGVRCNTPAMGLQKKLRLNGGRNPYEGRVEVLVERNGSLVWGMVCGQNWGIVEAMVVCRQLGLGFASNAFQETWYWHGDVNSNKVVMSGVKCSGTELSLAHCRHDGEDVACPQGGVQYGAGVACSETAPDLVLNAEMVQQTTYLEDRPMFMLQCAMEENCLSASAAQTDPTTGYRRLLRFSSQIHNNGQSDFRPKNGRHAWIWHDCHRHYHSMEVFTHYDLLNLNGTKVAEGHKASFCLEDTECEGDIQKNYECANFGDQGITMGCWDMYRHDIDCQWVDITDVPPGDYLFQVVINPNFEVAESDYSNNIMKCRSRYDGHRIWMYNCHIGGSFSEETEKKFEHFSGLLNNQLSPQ

- Kd [1]: 0.1 to 1 nM
- t1/2 [1]: 1.65 h
- apparent IC50, LOXL2 enzymatic activity (amplex red/HRP coupled assay, 1,5-diaminopentane substrate) [2]: 30 nM
- α (effect of the antibody on substrate affinity; mode of inhibition) [2]: 1
- β (effect of the antibody on the rate of the enzyme; mode of inhibition) [2]: 0.5
B1: anti-LOXL2 antibody AB0023 (murine monoclonal antibody) (antibody, V domains shown)
VH: QVQLQQSGAELVRPGTSVKVSCKASGYAFTYYLIEWVKQRPGQGLEWIGVINPGSGGTNYNEKFKGKATLTADKSSSTAYMQLSSLTSDDSAVYFCARNWMNFDYWGQGTTLTVSS
VL: DIVMTQAAPSVSVTPGESVSISCRSSKSLLHSNGNTYLYWFLQRPGQSPQFLIYRMSNLASGVPDRFSGSGSGTAFTLRISRVEAEDVGVYYCMQHLEYPYTFGGGTKLEIK
